Laboratory results published in patent US20150306181A1 (BOARD OF REGENTS OF THE UNIVERSITY OF NEBRASKA, published 2015).

T1: mouse leptin receptor-Fc chimera (mouse; human, UniProt P48356 22-839)
T1 construct: extracellular domain; Bought from R&D Systems; Captured on a protein G sensor chip through its Fc; also called ObR-Fc; chimera leptin receptor; not shown: human Fc fragment, printed as 'human protein G Fc fragment'
T1 sequence (looked up): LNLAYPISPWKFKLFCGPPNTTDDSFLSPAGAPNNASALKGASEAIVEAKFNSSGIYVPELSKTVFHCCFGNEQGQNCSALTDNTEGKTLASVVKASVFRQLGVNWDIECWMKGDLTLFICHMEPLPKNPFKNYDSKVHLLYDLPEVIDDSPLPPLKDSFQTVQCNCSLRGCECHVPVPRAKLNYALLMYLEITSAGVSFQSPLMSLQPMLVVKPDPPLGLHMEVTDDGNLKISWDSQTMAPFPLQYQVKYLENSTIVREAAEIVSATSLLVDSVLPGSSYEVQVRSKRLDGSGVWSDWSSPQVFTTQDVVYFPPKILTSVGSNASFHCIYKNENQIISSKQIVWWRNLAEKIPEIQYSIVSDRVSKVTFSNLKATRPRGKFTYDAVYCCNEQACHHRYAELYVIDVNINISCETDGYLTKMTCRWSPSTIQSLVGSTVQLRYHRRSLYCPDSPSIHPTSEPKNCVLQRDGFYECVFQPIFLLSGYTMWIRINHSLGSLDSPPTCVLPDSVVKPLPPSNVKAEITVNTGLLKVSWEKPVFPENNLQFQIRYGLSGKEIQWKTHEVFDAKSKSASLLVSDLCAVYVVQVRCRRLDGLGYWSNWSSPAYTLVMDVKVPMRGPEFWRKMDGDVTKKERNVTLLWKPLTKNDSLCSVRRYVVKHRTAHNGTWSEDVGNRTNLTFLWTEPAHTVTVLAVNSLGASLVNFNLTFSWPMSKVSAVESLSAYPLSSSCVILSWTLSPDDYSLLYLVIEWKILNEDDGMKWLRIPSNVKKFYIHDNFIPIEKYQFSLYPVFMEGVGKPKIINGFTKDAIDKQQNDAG


Experiments:
[1] = molecular target: T1, mouse leptin receptor-Fc chimera; experiment: SPR (Biacore 3000), ObR-Fc captured on protein G chip, 1:1 model
Method: The binding affinity of leptin and its analogs was measured by surface plasma resonance (SPR) in Biacore® 3000 instrument (GE Healthcare, Piscataway, N.J.), using a method reported for leptin (Mistrik et al. (2004) Anal. Biochem., 327:271-7). Carboxymethyl dextran chip (CMS), N-hydroxysuccinimide (NHS), 1-ethyl-3-(3-dimethylaminopropyl) carbodiimide (EDC), ethanolamine-HCl, HBS-EP buffer (10 mM HEPES, 150 mM NaCl, 3 mM EDTA, 0.005% surfactant P20, pH 7.4) and protein G were all purchased from GE Healthcare. To prepare the sensor chip, protein G was immobilized on CMS (Channel A and B) by consequent injection of 1) 115 μL NHS/EDC (1:1, v/v) (to activate dextran surface); 2) 60 μL protein G (200 μg/mL, 10 mM sodium acetate buffer, pH 4.0) (to bound the surface at 2000-3000 resonance units (RU)), and 3) 75 μl of 1 M ethanolamine hydrochloride, pH 8.5 (to deactivate NHS-ester and remove electrostatically bound protein). CMS surface response was recorded by first, immobilization of ObR-Fc (0.5 μg/mL, 15 μL in HBS-EP, 5 μL/min flow rate) in channel A following 1800 s washing (to capture 100-300 RU of ObR-Fc); second, capture of leptin or leptin-Pluronic® conjugates (0-300 nM, 100 μL in HBS-EP, flow rate 20 μL/min) and dissociation (900 s) in channel A (ObR-Fc surface) and B (protein G surface); third, regeneration of a fully active protein G surface by 5 μL glycine (10 mM, pH 2.0). The data (sensorgrams in channel A) were corrected by non-specific protein G surface binding (sensorgrams in channel B) and baseline draft (sensorgrams of HBS-EP injection in channel A) which might occur due to a slow dissociation of between ObR-Fc and protein G and then fitted to a 1:1 binding model using BIA evaluation software.
TABLE 3 Kinetic constants for leptin and leptin-P85 conjugates and leptin receptor interaction. The association and dissociation rate constants kₐ and kd were determined as global fitting parameters for a 1:1 binding model. The kinetics of the interaction with leptin, the mixture of leptin and P85, Lep-(ss)-P85(1) and its reduced form, Lep-(ss)-P85(2.1) and its reduced form, Lep-(nc)-P85(2) and purified Lep-(ss)-P85(2.3) from HIC, 33 min were analyzed. The equilibrium dissociation constant KD was determined as kd/kₐ. Numbers represent averaged values from three independent measurements on the same ObR-Fc surface.

[2] = molecular target: T1, mouse leptin receptor-Fc chimera; experiment: SPR, ObR-Fc captured on protein G CM5 chip, 1:1 model (Example 3)
Method: […] Binding affinity of leptin or leptin-POx with leptin receptor was determined by surface plasma resonance (SPR). Protein G was immobilized on CM5 sensor chip using following procedure: 1) inject 115 μL NHS/EDC mixed solution (1:1, v/v) to activate dextran surface; 2) inject 60 μL protein G (200 μg/mL in 10 mM sodium acetate buffer, pH 4.0) to bind with the activated sensor surface; 3) inject 75 μL of 1 M ethanolamine hydrochloride, pH 8.5 to deactivate NHS-ester and remove non-specifically bound protein. […] The sensorgram in channel A was corrected by non-specific surface binding (sensorgram in channel B) and baseline draft (sensorgram of HBS-EP buffer injection in channel A) and then fitted with a 1:1 binding model as provided by BIA evaluation software. The rate constant kₐ and kd, and equilibrium association constant (KA) and dissociation constant (KD) are determined.

[3] = molecular target: T1, mouse leptin receptor-Fc chimera; experiment: SPR (Biacore 3000), ObR-Fc captured on protein G chip, 1:1 model, KD = kd/ka
Method: (§1) The binding affinity of leptin and its analogs was measured by surface plasma resonance (SPR) in Biacore® 3000 instrument (GE Healthcare, Piscataway, N.J.), using a method reported for leptin (Mistrik et al. (2004) Anal. Biochem., 327:271-7). Carboxymethyl dextran chip (CMS), N-hydroxysuccinimide (NHS), 1-ethyl-3-(3-dimethylaminopropyl) carbodiimide (EDC), ethanolamine-HCl, HBS-EP buffer (10 mM HEPES, 150 mM NaCl, 3 mM EDTA, 0.005% surfactant P20, pH 7.4) and protein G were all purchased from GE Healthcare. […] CMS surface response was recorded by first, immobilization of ObR-Fc (0.5 μg/mL, 15 μL in HBS-EP, 5 μL/min flow rate) in channel A following 1800 s washing (to capture 100-300 RU of ObR-Fc); second, capture of leptin or leptin-Pluronic® conjugates (0-300 nM, 100 μL in HBS-EP, flow rate 20 μL/min) and dissociation (900 s) in channel A (ObR-Fc surface) and B (protein G surface); third, regeneration of a fully active protein G surface by 5 μL glycine (10 mM, pH 2.0). […]
(§2) TABLE 3 Kinetic constants for leptin and leptin-P85 conjugates and leptin receptor interaction. The association and dissociation rate constants kₐ and kd were determined as global fitting parameters for a 1:1 binding model. […] The equilibrium dissociation constant KD was determined as kd/kₐ. […]

[4] = molecular target: T1, mouse leptin receptor-Fc chimera; experiment: SPR, ObR-Fc captured on protein G chip; leptin in 1:1 mixture with free Pluronic P85
Description: Next, the binding of the leptin-Pluronic® conjugates with the chimera leptin receptor (ObR-Fc) was studied. ObR-Fc contains the human […] Fc fragment and the mouse ObR N-terminus that shares the same sequence as the extracellular domains of the putative leptin transporter at the BBB (ObRa) and the leptin receptor (ObRb) expressed in the brain. The Fc fragment of ObR-Fc was used to reversibly bind to protein G that was pre-immobilized onto the sensor chip. The ObR N-terminus of ObR-Fc adsorbed onto the sensor chip was used for sample detection. The SPR association and dissociation profiles were recorded for native leptin, a mixture of leptin and P85, Lep-(ss)-P85(1), Lep-(ss)-P85(2.1), Lep-(ss)-P85(2.3) (fractions purified by HIC and collected at 33 min) and Lep-(nc)-P85(2) (FIG. 8 and Table 3). […] The KD values for the N-terminal modified Lep-(nc)-P85(2), which also had low modification degree, were similar to those observed for Lep-(ss)-P85(2.1) without HIC purification.

[5] = molecular target: T1, mouse leptin receptor-Fc chimera; experiment: SPR, ObR-Fc captured on protein G chip, 1:1 model; leptin in 1:1 mixture with free Pluronic P85
Method: as §1, §2

[6] = molecular target: T1, mouse leptin receptor-Fc chimera; experiment: SPR, ObR-Fc captured on protein G chip, 1:1 model; leptin in 1:1 mixture with free Pluronic P85; leptin mixed with free P85
Method: as §1, §2

| Binder | koff [1] | kon [1] | Kd [1] | further results |
| --- | --- | --- | --- | --- |
| Lep-(ss)-P85(1) reduced (ligand, mouse, UniProt P41160 22-167, looked up, Pluronic P85 chains on lysine amino groups through the DSP linker, partly cleaved by 6 mM L-glutathione; a linker remainder is left on cleaved sites, Lep-(ss)-P85(1) dialysed against 6 mM L-glutathione in PBS with 20% ethanol; Some but not all P85 chains were cleaved; also called reduced form of Lep-(ss)-P85(1)) VPIQKVQDDTKTLIKTIVTRINDISHTQSVSAKQRVTGLDFIPGLHPILSLSKMDQTLAVYQQVLTSLPSQNVLQIANDLENLRDLLHLLAFSKSCSLPQTSGLQKPESLDGVLEASLYSTEVVALSRLQGSLQDILQQLDVSPEC | 0.00079 s⁻¹ | 49000 M⁻¹ s⁻¹ | 16.4 nM | – |
| Leptin-POx conjugate (ligand, UniProt P41160 22-167, looked up, P(MeOx50-b-BuOx20) poly(2-oxazoline) chains on amino groups through the DSP linker; modification degree 6.0 per leptin monomer by TNBS assay, SEC-purified mixture of forms with different numbers of POx chains, with some unmodified monomer and dimer; also called leptin-P(MeOx-b-BuOx); leptipox) VPIQKVQDDTKTLIKTIVTRINDISHTQSVSAKQRVTGLDFIPGLHPILSLSKMDQTLAVYQQVLTSLPSQNVLQIANDLENLRDLLHLLAFSKSCSLPQTSGLQKPESLDGVLEASLYSTEVVALSRLQGSLQDILQQLDVSPEC | – | – | – | Ka [2]: 1.8e+07 M⁻¹; Kd [2]: 56 nM; koff [2]: 0.00073 s⁻¹; kon [2]: 13000 M⁻¹ s⁻¹ |
| Lep-(ss)-P85(2.1) (ligand, mouse, UniProt P41160 22-167, looked up, Pluronic P85 chains on lysine amino groups through the DSP (disulfide) linker; lower degree of modification; positions not determined, Mixture that includes unmodified leptin) VPIQKVQDDTKTLIKTIVTRINDISHTQSVSAKQRVTGLDFIPGLHPILSLSKMDQTLAVYQQVLTSLPSQNVLQIANDLENLRDLLHLLAFSKSCSLPQTSGLQKPESLDGVLEASLYSTEVVALSRLQGSLQDILQQLDVSPEC | 0.000355 s⁻¹ | 113000 M⁻¹ s⁻¹ | 3.2 nM | – |
| Lep-(ss)-P85(2.1) reduced (ligand, mouse, UniProt P41160 22-167, looked up, Pluronic P85 chains on lysine amino groups through the DSP linker, partly cleaved by 6 mM L-glutathione, Lep-(ss)-P85(2.1) dialysed against 6 mM L-glutathione in PBS with 20% ethanol; also called reduced form of Lep-(ss)-P85(2.1)) VPIQKVQDDTKTLIKTIVTRINDISHTQSVSAKQRVTGLDFIPGLHPILSLSKMDQTLAVYQQVLTSLPSQNVLQIANDLENLRDLLHLLAFSKSCSLPQTSGLQKPESLDGVLEASLYSTEVVALSRLQGSLQDILQQLDVSPEC | 0.000407 s⁻¹ | 195000 M⁻¹ s⁻¹ | 2.09 nM | – |
| Lep-(ss)-P85(1) (ligand, mouse, UniProt P41160 22-167, looked up, Pluronic P85 chains on lysine amino groups through the DSP (disulfide) linker; highly modified; positions not determined, Mixture of unmodified leptin and leptin with 1 to several P85 chains) VPIQKVQDDTKTLIKTIVTRINDISHTQSVSAKQRVTGLDFIPGLHPILSLSKMDQTLAVYQQVLTSLPSQNVLQIANDLENLRDLLHLLAFSKSCSLPQTSGLQKPESLDGVLEASLYSTEVVALSRLQGSLQDILQQLDVSPEC | 0.000642 s⁻¹ | 12000 M⁻¹ s⁻¹ | 57.1 nM | – |
| Lep-(nc)-P85(2) (ligand, mouse, UniProt P41160 22-167, looked up, one Pluronic P85 chain on the N-terminal alpha amino group by reductive amination with mono-aldehyde-P85, the rest is unmodified leptin; also called N-terminal modified Lep-(nc)-P85(2)) VPIQKVQDDTKTLIKTIVTRINDISHTQSVSAKQRVTGLDFIPGLHPILSLSKMDQTLAVYQQVLTSLPSQNVLQIANDLENLRDLLHLLAFSKSCSLPQTSGLQKPESLDGVLEASLYSTEVVALSRLQGSLQDILQQLDVSPEC | 0.000247 s⁻¹ | 77000 M⁻¹ s⁻¹ | 3.8 nM | – |

Continued, in another order:

| koff [1] | kon [1] | Kd [1] | Binder | further results |
| --- | --- | --- | --- | --- |
| 0.000208 s⁻¹ | 2.09e+06 M⁻¹ s⁻¹ | – | Mouse leptin (ligand, UniProt P41160 22-167, looked up, Also tested as a non-covalent 1:1 mixture with free Pluronic P85 ('Leptin + P85'); Those rows use this molecule and name the mixture under assay; The preparation held monomer and dimer on SDS-PAGE; also called native leptin; mu-leptin) VPIQKVQDDTKTLIKTIVTRINDISHTQSVSAKQRVTGLDFIPGLHPILSLSKMDQTLAVYQQVLTSLPSQNVLQIANDLENLRDLLHLLAFSKSCSLPQTSGLQKPESLDGVLEASLYSTEVVALSRLQGSLQDILQQLDVSPEC | Ka [2]: 1.1e+09 M⁻¹; Kd [2]: 0.96 nM; koff [2]: 0.00051 s⁻¹; kon [2]: 530000 M⁻¹ s⁻¹; Kd [3]: 0.1 nM; fold decrease of binding affinity against native leptin alone [4]: ~3 fold; koff [5]: 0.000368 s⁻¹; kon [5]: 1.09e+06 M⁻¹ s⁻¹; Kd [6]: 0.337 nM |
| 0.000292 s⁻¹ | 311000 M⁻¹ s⁻¹ | 1.21 nM | Lep-(ss)-P85(2.3), 33 min (ligand, mouse, UniProt P41160 22-167, looked up, one Pluronic P85 chain on a lysine amino group through the DSP (disulfide) linker; position not determined, HIC fraction collected at 33 min, said to contain leptin modified with one P85 chain; also called Lep-(ss)-P85(2.3) purified by HIC (33 minutes); HIC-purified Lep-(ss)-P85(2.3)) VPIQKVQDDTKTLIKTIVTRINDISHTQSVSAKQRVTGLDFIPGLHPILSLSKMDQTLAVYQQVLTSLPSQNVLQIANDLENLRDLLHLLAFSKSCSLPQTSGLQKPESLDGVLEASLYSTEVVALSRLQGSLQDILQQLDVSPEC | – |
